{"source": "the nanobody polyreactivity screen of Harvey et al. (2022)", "data": [{"test": "yeast display, Sf9 membrane polyspecificity reagent, FACS + sequencing; frameworks hold sequencing errors", "procedure,_shortened": "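Using colony PCR, genes from sorted yeast display clones were amplified, then sequenced on MiSeq at 2 × 250 and filtered by CDR length. The clones had been stained with 10% biotinylated, detergent-solubilized Sf9 membrane reagent for 1 hour at 4 °C and sorted by FACS into low and high (top ~1%) gates on anti-HA and streptavidin fluorescence. Polyreactivity labels come from the gate of origin.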", "values": [{"sequence": "QVQLVESGGGLVQAGGSLRLSCAASGSISDVYAMGWYRQAPGKERELVAAITSGASTYYADSVKGRFTISRDNAKNTVYLQMNSLKPEDTAVYYCAADSDSQWGMDYWGQGTQVTVSS", "polyreactivity (PSR sort gate)": "low polyreactivity"}, {"sequence": "QVHLVESGGGLLQAGGSLRLSCAASGRTFGHNAMGWNRQAPGKERELVAAISSGGNTYYADSVKGRFTISRDNAKNTVYLQMNSLKPEDTAVYYCAAVTVIGGEYDYWGQGTQVTVSS", "polyreactivity (PSR sort gate)": "low polyreactivity"}, {"sequence": "QVQLVESGGGLVQAGGSLRLSCAASGSIFRRNAMGWYRQAPGTERELVAAISLRGGSTYYADSVKGRFTISRDLAKNTVYLQMISLKTQDTAVYYCADDEFDDYDWYRGYDTTYDYWGQGTQVTGSS", "polyreactivity (PSR sort gate)": "low polyreactivity"}, {"sequence": "QVQLVEAGGGLVQAGVSLRLSCAASGLTFVPNAMGWYRQAPGKERELVAAISNNGGRTYYADSVKGRFTISRDNAKNTVYLQMNSLKPEDTAVYYCAKYLSPGERHSYDYWGQGTQVTVSS", "polyreactivity (PSR sort gate)": "high polyreactivity"}, {"sequence": "QVQLVESGGGLVQAGGSLRLSCAASGLTFYTYPMGWYRQAPGKERELVAAISSGGSTNYADSVKGRFTISRDNAKNTVYLQMNSLTPEDTAVYYCAADPSYFTYFSFDLSESDYWGKGTQVTVSS", "polyreactivity (PSR sort gate)": "low polyreactivity"}, {"sequence": "QVQLVESGGGLVQAGGSLRLICAASGITFPSNTMGWYRQAPGKERELVAAITRGDNTYYADSVKGRFTISRDNAKNTVYLQMNSLKPEYTAVYYCATEGYQIQYEHDYWGQGTIVTVSS", "polyreactivity (PSR sort gate)": "low polyreactivity"}, {"sequence": "QVQLVESGGGLVPAGGSLRLSCAASGSTFYIYAMGWYRQAPGKERELVAAISRRGSSTYYADSVKGRFTISRDNAKNTVYLQMNSLIPEDTAVYYCAASQRHDHYYWGQGTQVTVSS", "polyreactivity (PSR sort gate)": "high polyreactivity"}, {"sequence": "QVQLVESGGGLVQAGGSLRLSCAASGSIFSYYTIGWYRKAPGKERELVAAISFSGTSTYYADSVKGRFTISRDNDKNTVYLQMNSLKPEDTAVYFCAKRALYYPTYPKYDTYNRYYWGQGTQGTVSS", "polyreactivity (PSR sort gate)": "high polyreactivity"}, {"sequence": "QVQLVETGGGIVQARGRLRLSCAASVITFTGYAMGWYRPAPGKERELVAAITSGGGRTYYADSVKGRFTISRDNAKNTVYLLMNSLKPEDTAVYYCNARGQSRYGYWGQGTQVTVSS", "polyreactivity (PSR sort gate)": "high polyreactivity"}, {"sequence": "QVQLVESGAGLVQAGGSLRLSCAASGRILSHYAMGWYRQAPGKERELVATINSGGSTYYADSVKGRFTISRDNAKNTVYLQMNSLKPEDTAVYYCAVDYAVSYAGWVLRYDYWGQATQVTVSS", "polyreactivity (PSR sort gate)": "low polyreactivity"}, {"sequence": "QVQLVESGGGLVQAGGSLRLSCAASGITFGRNTLGRYRQAPGKVRELVAAIDSGGNTYADSVKGRFTISRDNAKNTVYLQMNSLKPEDTAVYYCAVDGCEFSSYGYWGQGTQGTVSS", "polyreactivity (PSR sort gate)": "low polyreactivity"}, {"sequence": "QVQLVESGGGLVQAGGSLRLSCAASGRTIRYYTMGWYRQAPGKERELVAAISRSGGNTYYADSVKGRFTISRDNAKITVYLQMNSLKPEETAVYYCNKEYRHYVGRHDYWGQGTQVTVSS", "polyreactivity (PSR sort gate)": "high polyreactivity"}, {"sequence": "QVQLVESGGGLVQAGGSLRLSCAASGRIFLDYAMGWYRQAPGKERELVAAINSGGRTNYADSVKGRFTISRDNAKNTVYLQMNSLKPEDTAVYYCAAGYWPRWFWPYEYWGQGTQVTVSS", "polyreactivity (PSR sort gate)": "low polyreactivity"}, {"sequence": "QVQLVESGGGLVQAGGSLRLSCAASGRTFLNYAMRWNRQAPVKERELVAAITDGDSTNYADSVKGRFTISRDNAKNTVYLQMNSLKPEDTAVYYCNAPSLAYRYYYWGQGTQVTVSS", "polyreactivity (PSR sort gate)": "high polyreactivity"}, {"sequence": "QVQLVESGGGLVQAGGSLRLSCAAYGSIIGVNAMGWYRPAPGKERELVAAISSTGGSTYYADSVKGRFTISRDNAKNTVYLQMNSLKPEDTAVYYCNTDYSKSIGDGYAGFDYWGQGTQVTVSS", "polyreactivity (PSR sort gate)": "low polyreactivity"}, {"sequence": "QVQHVESGGGLVQAGGSLRLSCAASGSTFPGYAMGWYRQAPGKERELVAAISKRGGSTRYADSVKGRFTISRDNAINTVYLQMNSLKPEDTAVYYCAASYSYSGSGGGYWGQGTQVTVSS", "polyreactivity (PSR sort gate)": "high polyreactivity"}, {"sequence": "QVQLVESGGGLVQAGGSLRLSCAASGFTFYKYVMGWYRQAPGKERELVAAITTSGGSTYYADSVKGRFTISRDNAKNTVYLQMNSLKPEDTAVYYCNALARWWAYYDYGYWGQGTQVTVSS", "polyreactivity (PSR sort gate)": "low polyreactivity"}, {"sequence": "HVQLVESGGGLVQAGGSLRISCAASGLIFVFYAMGWYRQAPGKERELVAAISTSGDRTYYADSVKGRFTISRDNAKNTVYLQMISLKPEDTAVYFCNARRLGYRSGHPGYYWGQGTQVTVSS", "polyreactivity (PSR sort gate)": "high polyreactivity"}, {"sequence": "QVQLVESGGGLVQAGGSLRLSCAASGFTFNYAMGWYTQAPGKERELVAAISSAGTTYYADSVKGRFTISRDNAKNTVYLQMNSLKPEDTAVYYCAALARPKQDRYRYYYWGQGTQVTVSS", "polyreactivity (PSR sort gate)": "high polyreactivity"}, {"sequence": "QVQLEESGGGLVQAGGSLRLSCAASGSTLIDNVMVWYRQAPGKERELVASITSSDGTTYADSVKGRITISRDNAKNTVYLQMNSLIPEDTAVYYCAARPWYGTYNYWGQGTQVTVSS", "polyreactivity (PSR sort gate)": "low polyreactivity"}, {"sequence": "QVQLVESGGALVHAGGSLRLSCAASGSTFSGYDMVWYRQAPGKERELVAAISTYYADSVKGRFTISRDNAKTTVFLQMYCLKPEDRAVYYCAKPWGRYDYLGQGTQVTVSS", "polyreactivity (PSR sort gate)": "low polyreactivity"}, {"sequence": "QVQLVESAGGLVQAGGRLRVSCAASGFIFLYYPMGWYRKAPGKEREFVAAISWSDGNTYYADSVKGRFTISRDTAKNTDYLQMNSLKREDTAVYYCNARDADAWASGYDYWGQGTQLTVSS", "polyreactivity (PSR sort gate)": "low polyreactivity"}, {"sequence": "QVQLVESGGGLVQAGGSLRLSCDASGRIFAGYAMGWYRQAPGKERELVASINWSGGSTYYADSVKGRFTISRDNAKNTVYLQMNSLKPEDTAVYYCAKEPTYRSGEAYVGLYYWGQGTQVTVSS", "polyreactivity (PSR sort gate)": "high polyreactivity"}, {"sequence": "QVQLVESGGGLVQAGGSLRLSCAASGIIFTSNTMGWYRQAPGKEREFVASINWNGSSTYADSVKGRFTISRDNAKNTVYLQMNSMKPEDTAVYYCNADYNRNSVQFSLYDYWGQGTQVTVSS", "polyreactivity (PSR sort gate)": "low polyreactivity"}, {"sequence": "QVQLVDSGGGLVQEGGSLRLSCAASGNIFQTYDMGWYRQAHGKEREFVATITSSCARTYYADSVKGRFTISRDNAKNTVYVQMNCLKPEDTAVDYCNRVWSYANGYWGHGTQVTVSS", "polyreactivity (PSR sort gate)": "high polyreactivity"}, {"sequence": "QVQLVESGGGLVQAGGSLRLSCAASGNIFVYNAMGWYRQAPGKEREFVAAIDSGGSTYYADSVKGRFTISRDNAKNTVYLQMNSLKPEDTAVYYCARAVVQSRGPPRYKTPYDYWGQGTQVTVSS", "polyreactivity (PSR sort gate)": "low polyreactivity"}, {"sequence": "QDQLVESGGGLVHAGGSLRLSCAASGLTFGRNAMGWYRQAPGKERELVAAISRSGGRTSYADSVKGRFTISRDNAKYTVYLQMHSLKPEDTAVYYCAARSDVFTHDYWGQGTQVTVSS", "polyreactivity (PSR sort gate)": "high polyreactivity"}, {"sequence": "QVQLVESGGGLVQAGGSLRVSCAASGGILRGYAMGWYRQARGKEWELVAAISRGGRTNYADSVKGRFTISRDNAKNTVYLQMNSLKPEDTAVYYCAKRYARGENDYWGQGTQVTVSS", "polyreactivity (PSR sort gate)": "high polyreactivity"}, {"sequence": "QVQLVESGGGLVQAGGSLRLSCAASGIIFDWYAMGWYRQAPGTERELVAAISDSGDTTYYADSVKGRFTISRDNAKNTVYLQMNSLNPEDTAVYYCAARWEYVGYRRRYYRFDYWGQGTQVTVSS", "polyreactivity (PSR sort gate)": "high polyreactivity"}, {"sequence": "QVQLEESGGGLVQAGGSLRLSCAASGSTLKLNAMGWYRQAPGKERELVASINFSGGSTYYAYSVKGRFTISRDNAKNTVYLQMNSLKPEDTAVYYCAAEASSYSRSVRWRYVYYYWGQGTQVTVSS", "polyreactivity (PSR sort gate)": "high polyreactivity"}, {"sequence": "QVQLEESGGGLVQAGGSLSLSCAASGSTFDNYAMGWYRKAPGKERELVADITWSGGSTYYADSVKGRFTISRDNAQNSVYLQMNSLKAEDTAVYYCNTAGYYTKYDYWGQGTQVTVSS", "polyreactivity (PSR sort gate)": "low polyreactivity"}, {"sequence": "QDQLVESGGGLVQAGCSLRLSCAASGSTFHLNAMGWYRQAPGKERELVAAITWSGGSTYYADSVKGRFTISRDNAKNTVYLQMNSLKPEDTAVYYCNAGLGKFPVKGGRRYRLDYWGQGTQVTVSS", "polyreactivity (PSR sort gate)": "low polyreactivity"}]}]}
